Test results published in article PMC5549892.

Molecular target: BG505 SOSIP.664 gp140 envelope glycoprotein trimer (HIV-1 (BG505))
Experiment: native gel or EMSA

BG505 SOSIP.664 gp140 envelope glycoprotein trimer (complex)
stoichiometry N: 3
